Laboratory results: patent US20220265819A1

Key:
[1] = molecular target: full length pHrodo-labelled aggregated (P301S) 2N4R tau (human) (UniProt P10636); test: cell-based or functional assay
[2] = molecular target: full length pHrodo-labelled monomeric (P301S) 2N4R tau (human) (UniProt P10636); test: cell-based or functional assay
Sequence of full length pHrodo-labelled monomeric (P301S) 2N4R tau (human) (P10636 other isoform, or with tags, fused parts or gaps P301S P301S): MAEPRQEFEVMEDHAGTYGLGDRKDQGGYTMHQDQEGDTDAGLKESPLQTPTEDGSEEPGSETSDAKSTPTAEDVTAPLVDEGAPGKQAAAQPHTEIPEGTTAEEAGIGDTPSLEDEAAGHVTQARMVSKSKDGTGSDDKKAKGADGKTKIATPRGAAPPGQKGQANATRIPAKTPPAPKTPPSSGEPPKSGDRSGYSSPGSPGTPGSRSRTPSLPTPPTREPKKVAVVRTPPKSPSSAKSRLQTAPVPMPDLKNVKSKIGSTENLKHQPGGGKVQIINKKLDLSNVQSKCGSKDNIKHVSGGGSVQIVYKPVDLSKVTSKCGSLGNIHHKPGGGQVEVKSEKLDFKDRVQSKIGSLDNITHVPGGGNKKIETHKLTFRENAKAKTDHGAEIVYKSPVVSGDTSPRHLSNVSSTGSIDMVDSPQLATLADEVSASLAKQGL

Sequence of full length pHrodo-labelled aggregated (P301S) 2N4R tau (human) (P10636 other isoform, or with tags, fused parts or gaps P301S P301S): as above

B1: Clone 1 rabbit monoclonal IgG (antibody, V domains shown)
VH: QSLEESGGGLVKPGGTLTLTCTVSGFSLNNYDMSWVRQAPGKGLEWIGTVSTTYRRYYASWAKGRFTISKTSSTTVDLKMTSLTTEDTATYFCAASGIWGPGTLVTVSL
VL: AQVLTQTTSPVSAAVGGTVTINCQSSQRVYSNYLAWYQQKPGQPPKRLIFLASTLESGVPSRFSGSGSGTQFTLTISDLECDDAATYYCAGTYTGSIWAFGGGTEVVVKG
inhibition of uptake of aggregated tau by human iPSC-derived astrocytes [1]: 46.3 % inhibition | inhibition of uptake of aggregated tau into human iPSC-derived neurons [1]: 65 % inhibition | inhibition of uptake of pHrodo-labelled aggregated tau into human iPSC-derived neurons at 4 h [1]: 69 % inhibition | inhibition of uptake of monomeric tau by human iPSC-derived astrocytes [2]: 39.8 % inhibition | inhibition of uptake of monomeric tau into human iPSC-derived neurons [2]: 41.2 % inhibition
